PMC4091826 (Molecular Biology of the Cell, 2014)
Numbering of substitutions follows the chain as printed. Names may count otherwise. “Also recorded” adds a separate entry of the source. No end group written: not given here.

B1: Ssc1 E467A suppressor S201 (E467A, D519E), purified (natural protein, S. cerevisiae, UniProt P0CS90 24-654, looked up)
chain: QSTKVQGSVIGIDLGTTNSAVAIMEGKVPKIIENAEGSRTTPSVVAFTKEGERLVGIPAKRQAVVNPENTLFATKRLIGRRFEDAEVQRDIKQVPYKIVKHSNGDAWVEARGQTYSPAQIGGFVLNKMKETAEAYLGKPVKNAVVTVPAYFNDSQRQATKDAGQIVGLNVLRVVNEPTAAALAYGLEKSDSKVVAVFDLGGGTFDISILDIDNGVFEVKSTNGDTHLGGEDFDIYLLREIVSRFKTETGIDLENDRMAIQRIREAAEKAKIELSSTVSTEINLPFITADASGPKHINMKFSRAQFETLTAPLVKRTVDPVKKALKDAGLSTSDISEVLLVGGMSRMPKVVETVKSLFGKDPSKAVNPDEAVAIGAAVQGAVLSGEVTDVLLLDVTPLSLGIETLGGVFTRLIPRNTTIPTKKSQIFSTAAAGQTSVEIRVFQGARELVRDNKLIGNFTLAGIPPAPKGVPQIEVTFDIDADGIINVSARDKATNKESSITVAGSSGLSENEIEQMVNDAEKFKSQDEARKQAIETANKADQLANDTENSLKEFEGKVDKAEAQKVRDQITSLKELVARVQGGEEVNAEELKTKTEELQTSSMKLFEQLYKNDSNNNNNNNGNNAESGETKQ
B2: Q465A (protein)
chain: B1 chain with Q442A, A444E, E496D
modifications: left off: His6, end not stated, state not stated
B3: E467A-D411R (protein)
chain: B1 chain with D388R, E496D
modifications: left off: His6, end not stated, state not stated
B4: D411R (protein)
chain: B1 chain with D388R, A444E, E496D
modifications: left off: His6, end not stated, state not stated
B5: S7-N508T: suppressor S7-N508T subcloned into the E467A-D411R backbone (protein)
chain: B1 chain with N485T, E496D
modifications: left off: His6, end not stated, state not stated
B6: WT Ssc1: Wild type Ssc1 (His6), yeast mtHsp70 (protein)
chain: B1 chain with A444E, E496D
modifications: left off: His6, end not stated, state not stated
B7: E467A-D416R (protein, UniProt P0CS90 24-654, looked up, variant E467A D416R)
Import motor subunit, …: B1 chain with D393R, E496D
B8: D416R (protein)
chain: B1 chain with D393R, A444E, E496D
modifications: left off: His6, end not stated, state not stated
B9: S1-D519E: suppressor S1-D519E subcloned into the E467A-D411R backbone (protein)
chain: B1 chain
modifications: left off: His6, end not stated, state not stated
B10: S2-V524I: suppressor S2-V524I subcloned into the E467A-D411R backbone (protein)
chain: B1 chain with E496D, V501I
modifications: left off: His6, end not stated, state not stated
B11: G466E (protein)
chain: B1 chain with G443E, A444E, E496D
modifications: left off: His6, end not stated, state not stated
B12: S209 (protein)
chain: B1 chain with K467R, E496D
modifications: left off: His6, end not stated, state not stated
B13: Ssc1 E467A suppressor S204 (E467A, D519N), purified (natural protein, S. cerevisiae, UniProt P0CS90 24-654, looked up)
chain: B1 chain with E496N
B14: Ssc1 E467A suppressor S207 (E467A, N508T), purified (natural protein, S. cerevisiae, UniProt P0CS90 24-654, looked up)
chain: B1 chain with N485T, E496D
B15: Ssc1 E467A suppressor S203 (E467A, D519Y), purified (natural protein, S. cerevisiae, UniProt P0CS90 24-654, looked up)
chain: B1 chain with E496Y
B16: Ssc1 E467A suppressor S209 (E467A, K490R), purified (natural protein, S. cerevisiae, UniProt P0CS90 24-654, looked up)
chain: B1 chain with K467R, E496D
B17: Ssc1 E467A suppressor S205 (E467A, N508K), purified (natural protein, S. cerevisiae, UniProt P0CS90 24-654, looked up)
chain: B1 chain with N485K, E496D
B18: Ssc1 E467A suppressor S202 (E467A, V524I), purified (natural protein, S. cerevisiae, UniProt P0CS90 24-654, looked up)
chain: B1 chain with E496D, V501I
B19: Ssc1 E467A suppressor S208 (E467A, D519G), purified (natural protein, S. cerevisiae, UniProt P0CS90 24-654, looked up)
chain: B1 chain with E496G

What was measured:
[1] = target: T1, fluorescein-labeled P5 peptide (also: fluorescein label, position not given here); assay: fluorescence polarisation
T1 peptide: CALLLSAPRR

yeast cells = assay: Growth phenotype; type: cell-based, S. cerevisiae; conditions: minimal medium or 5-FOA medium, serial dilutions
Ssc1 [2] = assay: Single-turnover basal ATPase assay, Ssc1; type: biochemical, S. cerevisiae; conditions: 25°C; for fold increase in basal ATPase activity: buffer A, versus wild type
Ssc1 [3] = assay: ATP-induced substrate release by fluorescence anisotropy, Ssc1; type: biochemical, S. cerevisiae; conditions: 2.5 mM ATP, 5 μM Ssc1[F-P5]; for ATP-induced substrate release, in words: 5 min
Ssc1 [4] = assay: Tryptophan fluorescence quenching upon ATP binding, Ssc1; type: biochemical, S. cerevisiae; conditions: 2.5 μM protein, 1000-fold excess ATP, wild type set at 100%
Ssc1 [5] = assay: Stimulation of ATPase activity by P5 peptide, Ssc1; type: biochemical, S. cerevisiae; conditions: 100-fold molar excess P5, single-turnover
Ssc1 [6] = assay: Limited proteolytic cleavage by trypsin; type: biochemical, S. cerevisiae; conditions: 1:100 (wt/wt) trypsin, 25°C, SDS-PAGE
Tim44 = assay: Coimmunoprecipitation of Ssc1 with Tim44; type: binding, S. cerevisiae; conditions: mitochondrial lysates, anti-Ssc1, presence or absence of 1 mM ATP; Figure 6A

Molecule	substrate release upon ATP binding [1] [%]	growth phenotype, in words (yeast cells)	also measured
B1	> 50		
B2		viable at 30 °C but displayed temperature sensitivity at 34 and 37 °C	fold increase in basal ATPase activity (Ssc1 [2]): 2.25 fold
B3		lethal, as demonstrated by lack of growth on 5-FOA	ATP-induced substrate release, in words (Ssc1 [3]): markedly compromised in ATP-dependent conformational changes required for release of bound substrate; tryptophan fluorescence quenching upon ATP binding, in words (Ssc1 [4]): markedly compromised; stimulation of ATPase activity by P5, in words (Ssc1 [5]): severely impaired stimulation by substrate
B4		did not result in a growth defect; also recorded: completely viable	ATP-induced substrate release, in words (Ssc1 [3]): modest reductions; fold increase in basal ATPase activity (Ssc1 [2]): twofold increase; tryptophan fluorescence quenching upon ATP binding, in words (Ssc1 [4]): modest reductions; stimulation of ATPase activity by P5, in words (Ssc1 [5]): modest reductions in stimulation of ATPase activity by substrate
B5		significant growth rescue of the E467A-D411R–associated lethality at different temperatures on 5-FOA medium	
B6			trypsin cleavage pattern, in words (Ssc1 [6]): limited proteolysis pattern, leading to formation of stable 30-kDa fragments; interaction with Tim44, in words (Tim44): robust interaction with Tim44 in the absence of ATP, and this binding was sensitive to the presence of ATP
B7		semidominant phenotype	
B8		severe growth defect, as evidenced by its inviability on 5-FOA medium; also recorded: inviable	substrate (peptide) release upon ATP addition (Ssc1 [3]; anisotropy decrease up to 5 min): < 10%; fold increase in basal ATPase activity (Ssc1 [2]): 4.5 fold; tryptophan fluorescence quenching upon ATP binding, in words (Ssc1 [4]): significantly lowered quenching of tryptophan fluorescence; stimulation of ATPase activity by P5, in words (Ssc1 [5]): stimulated fivefold less by P5 as compared with the wild-type protein
B9		significant growth rescue of the E467A-D411R–associated lethality at different temperatures on 5-FOA medium	
B10		significant growth rescue of the E467A-D411R–associated lethality at different temperatures on 5-FOA medium	
B11		lethal and unable to grow on 5-FOA medium	fold increase in basal ATPase activity (Ssc1 [2]): 11 fold
B12			basal ATPase activity, in words (Ssc1 [2]): able to suppress the elevated basal activity of the mutant; stimulation of ATPase activity by P5, in words (Ssc1 [5]): could stimulate ATPase activity similar to wild-type levels; also recorded: augment peptide-mediated ATPase stimulation
B13	> 50		
B14	> 50		
B15	> 50		
B16	> 50		
B17	> 50		
B18	> 50		
B19	> 50		
